# Source: article PMC9318811, “PbUGT72AJ2-Mediated Glycosylation Plays an Important Role in Lignin Formation and Stone Cell Development in Pears (Pyrus bretschneideri)” (International Journal of Molecular Sciences, 2022)
# B1: PbUGT72AJ2 (Pyrus x bretschneideri) (protein)
# chain: MSSKPHAAILCSPGLGHLIPSLELAKRLVTHRNFTVTIFAIPSPTSKTESELLKAAATPKFFDIIELPPPDISGCVGPNVAVVTLLAVMMREVRPAFRSAILGMEYSLRPTVLIVDLFSTESLSIGDELGIPKYVYVASTAWLVALTVYVPVFDREMEGEYVDQTEPLRIPGCKPVQPDDVVDPMLDRTDQQYLEYVRIGTNFPKSDGILMNTWEDLEHKTIDALRDEGLLGRVAKVPIYPIGPLTRSVQSAGSTSTGLREEGLFNWLDKQPCESVIFVSLGSGGTVSFEQMTEMAWGLELSKQRFIWVVRPPAKSADAAYFTSGNRDDDPSTYLPKGFLTRTHDVGLVVHLWAPQVDILSHPSIGGFWSHCGWNSSLESITNEVPMIVWPLHAEQRINATMLTEELGVAVRSKVLPLKKVVDREEIKEMVRKIMVDKDGQAIRGRVKELKLSAAKAWSVGGSSYNAISQISSGNQRKC
# Experiments:
# [1] = substrate: COc1cc(/C=C/CO)cc(OC)c1O; experiment: HPLC of glucoside product, double reciprocal plot; type: biochemical, Pyrus x bretschneideri; details: 2.5 mM UDP-glucose, 50 mM MgSO4, 200 mM KCl, 100 mM PBS pH 7.2–7.4, 35 °C, 0.1% β-mercaptoethanol, pH 7.0
# Text: (§1) HPLC of glucoside product, double reciprocal plot on PbUGT72AJ2
# [2] = substrate: COc1cc(/C=C/CO)ccc1O; experiment: HPLC of glucoside product, double reciprocal plot; type: biochemical, Pyrus x bretschneideri; details: 2.5 mM UDP-glucose, 50 mM MgSO4, 200 mM KCl, 100 mM PBS pH 7.2–7.4, 35 °C, 0.1% β-mercaptoethanol, pH 7.0
# Text: as §1
protein,measurement,setting,value
B1,Km,[1],144.13 ± 22.31 µM
same,Vmax,[1],3.32 µM/min/mg
same,kcat,[1],0.44 ± 0.03 s⁻¹
same,kcat/Km,[1],3050 ± 250 M⁻¹ s⁻¹
same,Km,[2],117.83 ± 7.94 µM
same,Vmax,[2],4.23 µM/min/mg
same,kcat,[2],0.55 ± 0.02 s⁻¹
same,kcat/Km,[2],4670 ± 130 M⁻¹ s⁻¹
